{"source": "patent US20190022259A1", "about": "“Use of 99mTc-tilmanocept and related molecular constructs for identifying and diagnosing malignant tumors and for monitoring therapeutic anti-tumor interventions” (Navidea Biopharmaceuticals, Inc., priority 2017, published 2019)", "key": {"[1]": {"conditions": "rat, in vivo, iv; cited from earlier work"}, "[2]": {"conditions": "human, in vivo", "description": "A safety follow-up was conducted between 2 to 8 days after the injection."}, "[3]": {"tested_on": "TAMs around liver metastases (CD206+ macrophages)", "experiment": "SPECT/CT imaging of colorectal cancer patients with synchronous liver metastasis after intravenous injection", "format": "in vivo, human", "conditions": "imaging 4-6 hours after injection"}}, "note": "Entries after “also recorded” stand apart in the source; their conditions may differ.", "data": [{"substance": "(99m)Tc-diethylenetriaminepentaacetic acid (DTPA)-mannosyl-dextran [^99mTc tilmanocept]", "values": [{"measurement": "excretion", "setting": "[1]", "value": "excreted into the urine"}, {"measurement": "adverse drug reactions", "setting": "[2]", "value": "No adverse drug reactions were observed"}, {"measurement": "tolerability of IV injection", "setting": "[2]; iv", "value": "well-tolerated"}, {"measurement": "localization on SPECT/CT image", "setting": "[3]; first subject, 50 μg/2mCi i.v.", "value": "localization of ^99mTc tilmanocept in an area of larger metastasis than was observed with the FDG PET/CT; also recorded: suggests the presence of TAMs around the metastasis"}, {"measurement": "localization on SPECT/CT image", "setting": "[3]; second subject, 200 μg/2mCi i.v.", "value": "Localization around the metastasis was noted"}]}]}
